Experimental data reported in paper PMC5036196.

B1: ARB2-M1 (residues Gln463, His467 and Asp471 mutated to Ala) (domain or fragment)
chain: LQKAIRAQQQAYLSAEFNFVTLPLVSMDLPDNTVLCTPNISESNTIIIVVHDTSDIWAKRNVISGTIDLSSSVIIDNSLDFIKWGLDRKYGIIDVNIPLTLFEPDNYSGMITSQEVLIYLWDNYIKYFPSVAKIAFIGIGDSYSGIVHLLGHRDTRAVTKTVINFLGDKQLKPLVPLVDETLSEWYFKNSLIFSNNSHQCWKENESRKPRKKFGRVLRCDTDGLNNIIEERFEEATDFILDS
B2: ARB2-M4 (residues His604, His608 and Arg609 mutated to Ala) (domain or fragment)
chain: LQKAIRQQQQHYLSDEFNFVTLPLVSMDLPDNTVLCTPNISESNTIIIVVHDTSDIWAKRNVISGTIDLSSSVIIDNSLDFIKWGLDRKYGIIDVNIPLTLFEPDNYSGMITSQEVLIYLWDNYIKYFPSVAKIAFIGIGDSYSGIVALLGAADTRAVTKTVINFLGDKQLKPLVPLVDETLSEWYFKNSLIFSNNSHQCWKENESRKPRKKFGRVLRCDTDGLNNIIEERFEEATDFILDS
B3: ARB2-M2 (residues Tyr468 and Glu472 mutated to Ala) (domain or fragment)
chain: LQKAIRQQQQHALSDAFNFVTLPLVSMDLPDNTVLCTPNISESNTIIIVVHDTSDIWAKRNVISGTIDLSSSVIIDNSLDFIKWGLDRKYGIIDVNIPLTLFEPDNYSGMITSQEVLIYLWDNYIKYFPSVAKIAFIGIGDSYSGIVHLLGHRDTRAVTKTVINFLGDKQLKPLVPLVDETLSEWYFKNSLIFSNNSHQCWKENESRKPRKKFGRVLRCDTDGLNNIIEERFEEATDFILDS
B4: ARB2 domain of Hda1 (Hda1^457–698) (domain or fragment)
chain: LQKAIRQQQQHYLSDEFNFVTLPLVSMDLPDNTVLCTPNISESNTIIIVVHDTSDIWAKRNVISGTIDLSSSVIIDNSLDFIKWGLDRKYGIIDVNIPLTLFEPDNYSGMITSQEVLIYLWDNYIKYFPSVAKIAFIGIGDSYSGIVHLLGHRDTRAVTKTVINFLGDKQLKPLVPLVDETLSEWYFKNSLIFSNNSHQCWKENESRKPRKKFGRVLRCDTDGLNNIIEERFEEATDFILDS
B5: ARB2-M3 (residues Val481, Ser482, Met483 and Asp484 mutated to Ala) (domain or fragment)
chain: LQKAIRQQQQHYLSDEFNFVTLPLAAAALPDNTVLCTPNISESNTIIIVVHDTSDIWAKRNVISGTIDLSSSVIIDNSLDFIKWGLDRKYGIIDVNIPLTLFEPDNYSGMITSQEVLIYLWDNYIKYFPSVAKIAFIGIGDSYSGIVHLLGHRDTRAVTKTVINFLGDKQLKPLVPLVDETLSEWYFKNSLIFSNNSHQCWKENESRKPRKKFGRVLRCDTDGLNNIIEERFEEATDFILDS

Each binder was assayed against yeast histone H2A-H2B dimer (Saccharomyces cerevisiae) (UniProt P04911) (assay: ITC; ITC200 at 20 °C; 0.5 mM ARB2 or mutant in the injector, 0.2 mM H2A/B or 0.25 mM H3/4 in the sample cell; 25 mM Tris-HCl pH 7.5, 200 mM NaCl; single-site fitting model).
With B1 the Kd was 20.4 µM, the dH was -6.86 kcal/mol and the stoichiometry N was 0.77. In the case of B2, the Kd is reported as 17.4 µM, the dH is reported as -11.5 kcal/mol and the stoichiometry N is reported as 0.8. B3 showed a Kd of 16.9 µM, a dH of -8.9 kcal/mol and a stoichiometry N of 0.64. B4 showed a Kd of 5.46 µM, a dH of -12.9 kcal/mol and a stoichiometry N of 0.78. With B5 the Kd was 27.7 µM, the dH was -11.6 kcal/mol and the stoichiometry N was 0.74.
